Laboratory results reported in patent US20150351390A1, “COMPOSITIONS AND METHODS FOR AUXIN-ANALOG CONJUGATION” (PIONEER HI-BRED INTERNATIONAL, INC., priority 2012, published 2015).

What was measured:
Type in all cases: biochemical
[1] = LC-MS assay of GH3 conjugation of IAA with Asp or Glu; conditions: LC-MS; for Detected auxin conjugates: IAA-Asp: IAA with Asp; for Detected auxin conjugates: IAA-Glu: IAA with Glu
Procedure, shortened: (§1)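 Amino acid conjugates of IAA, 2,4-D or dicamba measured by LC-MS against conjugate standards, with kinetic parameters fitted to Michaelis-Menten initial velocities. Reactions: 5 mM each of auxin, ATP and Asp or Glu with 44 to 164 μg/mL purified His-tagged GH3 (E. coli-expressed), pH 8.0 Tris, 5 mM MgCl2, 1 mM DTT, 30 °C for 3 h.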

[2] = LC-MS assay of GH3 conjugation of 2,4-D with Asp or Glu; conditions: LC-MS; for Detected auxin conjugates: 2,4-D-Asp: 2,4-D with Asp; for Detected auxin conjugates: 2,4-D-Glu: 2,4-D with Glu
Procedure, shortened: as §1

[3] = LC-MS assay of GH3 conjugation of dicamba with Asp or Glu; conditions: LC-MS; for Detected auxin conjugates: Dicamba-Asp: dicamba with Asp; for Detected auxin conjugates: Dicamba-Glu: dicamba with Glu
Protocol: To detect and monitor the formation of acyl conjugates with 2,4-D or dicamba, a sensitive LC-MS method was developed using the respective amino acid conjugate standards. […] […] […] The supernatant was diluted 20× in water and then analyzed by LC-MS (AB Sciex 4000 QTrap coupled with Shimadzu Nexera UHPLC) using a Phenomenex Luna 3 μm Phenyl-Hexyl (00B-4256-Y0) column. The concentration of the conjugates was calculated based on the standards. Kinetic parameters were estimated by fitting initial velocity values to the Michaelis-Menten equation.
The GH3 superfamily conjugase activity analysis of IAA, 2,4-D or dicamba with Asp or Glu was done using LC-MS to analyze the final conjugate products as described in Example 1. Protein sequences of GH3 homologs (Table 3) were obtained from public databases (NCBI, http://www.ncbi.nlm.nih.gov/) by Blast analysis of AtGH3.17 protein sequence (accession # Q9FZ87). Coding sequences were designed for optimal expression in E. coli based on the protein sequences and synthesized. Synthesized coding sequences along with N-term his-tag coding sequences were cloned into a pET24a-based E. coli expression vector. The E. coli expression vectors were transformed into OverExpress C41(DE3) cells (Lucigen) for protein expression. Recombinant E. coli strains were inoculated into 5 ml LB media supplemented with 40 mg/L kanamycin and cultured overnight at 37° C. The overnight culture (0.5 mL) was inoculated into 50 mL LB medium plus 40 mg/L kanamycin and grown at 30° C. until OD600 reached 0.6. The cultures were induced with 0.2 mM IPTG at 16° C., 230 rpm overnight. Cells were harvested by centrifugation at 7,000 rpm for 10 mins. The cell pellet from 50 mL of cell culture was frozen and thawed twice and then lysed in 800 μL lysis buffer A (150 mM NaCl, 50 mM Tris-HCl pH 8.0, 5 mM MgCl2, 10% glycerol) plus 20 mM imidazole, 1 mM DTT, 0.2 mg/ml lysozyme, 1/200 protease inhibitor cocktail (EMD set3, EDTA free) and 1/2000 endonuclease. Lysate was then centrifuged at 13,000 rpm for 30 min at 4° C. Supernatant was loaded onto 200 μL Ni-NTA columns pre-equilibrated with buffer A with 20 mM imidazole at 4° C. Each column was then washed with (1) 2×800 μL of buffer A with 10 mM imidazole, (2) 2×800 μL of buffer A with 20 mM imidazole and (3) 2×200 μL of buffer A with 50 mM imidazole. Protein was eluted with 200 μL of buffer A with 250 mM imidazole. The concentration was measured by Bradford assay. Purified protein was used in conjugation reaction assays as described in example 1.

Row | Molecule | Detected auxin conjugates: IAA-Asp [1] | Detected auxin conjugates: IAA-Glu [1] | Detected auxin conjugates: 2,4-D-Asp [2] | Detected auxin conjugates: 2,4-D-Glu [2] | Detected auxin conjugates: Dicamba-Asp [3] | Detected auxin conjugates: Dicamba-Glu [3]
1 | GmGH3-2: GH3 protein, accession XP_003521802.1 (protein, Glycine max) MLEKVEEFNMDKVIQEFELLTRDAERVQRETLKRILEDNASAEYLQSLGLNGRTDPESFKACVPMVTHKELEPYIYRIIDGDASPILTGKPITTMSLSSGTTQGKPKYVPWNDELYETTMQIYQTSFAFRNREFPIKNGKALSFIYGSKQLKTKGGLAARTATSNVFCSAGYKCAMRALQSQCCSPDEVIFGPDFFQSLYCHLLCGLIFREEVEFVSSTFAHSIVHAFRTFEQVWEELCNDIREGVLTRNVTVPSIRMAMSKLLKPNPELANAIHKKCTGLSNWYGLIPELFPNAKYIYGIMTGSMEPYLKKMRHYAGELPLLTADYGSSEGWIAANVNPQLPPEYATYAVLPHIGYFEFIPLLELENTKPLGLTQVKVGQEYEIVMTNPAGLYRYRLGDVVKVMGFHNSTPELKFIRRSSLLLNINIDKNTEKDLQLAVEAAGKLLAEEKLEVVDFSSQVDLSKEPGHYVIFWEISGDASQELLHECCNCLDKSFVDAGYTSSRKVNCIGALELRLVRRGTFQKILDHYLGLGTAVSQYKTPRCVGPTNTRVLQILSENVVNNYLSTAFN | Yes | No | No | No | No | No
2 | GmGH3-6: GH3 protein, accession XP_003540891.1 (protein, Glycine max) MPQHQPTLMEPVLSYNNSTNNGNGNSDYDIISWFEDVSQNAGFVQTQLLFQILKQNYGVEYLKKWLGSYNILEMDACALESLFSSVVPLASHADFEPFIQRIADGDTAPLLTQQPITTLSLSSGTTEGRQKFVPFTRHSAQTTLQIFTLAAAYRSRIYPIRQGGRILEFIYSSNRFKTKGGLTVGTATTHYYASEEFNIKQHKTKSFTCSPQEVISGGDYKQSTYCHLLLGLFFSDQVEFITSAFIYSMVQAFTTFEELWREICNDIRDGTLSSRIKSPKMRKAVLDIISPNPNLAAKLEDACKGLEVVDWFGLIPKLWPNAKYVYSIMTGSMQPYLKKLRHYANGLPLVSADYGSTESWIGVNVDPSLPPEDVTFAVVPTFSYFEFIPLHRNEKNFSSGGDDFIEDKPIPLSQIKVGQEYEVVLTTFTGLYRCRLGDVVEVAGFHNGTPKLNFVCRRKLILTINIDKNTEKDLQLVVERGSHILNMTSRGELVDFTSYADVSKQPGHYVIYWEIKGEVEDKILGACCNEMDKSFADHGYVVSRKTNSIGPLELCVLESGTFKKILDSFIANGAALSQFKTPRCTNNHVLLKILNTCTTKKFRSTAYNSSMEQ | Yes | Yes | No | No | No | No
3 | SlGH3-14: GH3 protein, SGN-E745758 (protein, listed as Solanum lycopersicum) MKMMVENIEKKFDAEEVIEDFEVLTKDAGRIQEETLEKILKENGGTEYLKQWGLNGRTDVETFKACVPIVGHNDLEPYIQRIADGDLSPILTGKPIETISLSSGTTQGKPKFVPFNDELMDSTMQIFKTSFAFRNREFPIGNGKALQFIYSSKQFKTKGGLAAGTATTNVYRNAQFKKTMNAMSTPVCSPDEVIFGPDFQQSLYCHLLSGLIFRDEVQVVSSTFAHSIVHAFRTFEQVWEELVVDIREGVLSSRVTVPSIRLAMSKLLKPDPELAETIYSKCSSLSNWYGLIPELFPNTKYIYGIMTGSMEPYLKKLRHYAGELPLLSADYGSSEGWVGVNVNPKFPPEMVTYAVLPNIGYFEFLPLEENLVGVEQANSPVGLTEVKLGEEYEIVFTNFAGLYRYRLGDVVKIKGFHNGTPELQFVCRRNLLLSINIDKNTEKDLQLAVEAAGKHLVDEKLEVMDFTSHVNVSADPGHYVIFWELSGEATDEILQECCNCLDKSFLDAGYVSSRKVNAIGALELRIVKRGTFHKILDHFVGLGGAVSQFKTPRCVGPKNSSLIQILSSNVVKSYSSTAFC | No | No | No | No | No | No
4 | GmGH3-10: GH3 protein, accession XP_003541929.1 (protein, Glycine max) MPEAPKHLCHDPKDNLDDDDDDGSSNNNKRALEYIEEVTTNADEIQEKVLAQILSRSANAEYLQRHGLEGRTDRNTFKNIMPVVTYEDLKPDIDRIANGDTSPILCSKPISEFLTSSGTSGGERKLMPTIEEELERRSMLYSLLMPVMDQFVPDLDKGKGMYFLFTKSEAKTPGGLLARPVLTSYYKSSHFKHRKHDPYTNYTSPNETILCHDSYQSMYSQLLCGLYQNEEVLRVGAVFASGFIRALKFLEKHFVCLCNDIRTGTLDAKITDPSVREAVMKVLKPNPTLADFVETECMKGSWKGIITRIWPNTKYVDVIVTGTMSQYIPILDYYSNGLPLVCTMYASSECYFGLNLNPSCDPSEVAYTLIPTMAYFEFLPLDEINGHTNSISQLEQEHLVDLADVKLGQEYELVVTTYAGLYRYRVGDILRVAGFKNKAPQFNFVCRKNVVLSIDSDKTDEVELHNAVKSGAEQLAEFNASLTEYTSCVDTSTIPGHYVLYWEISTNDHTPTIPSSVFGHCCLSIEESLNSVYRQGRVSESIGPLEIKVVENGTFDKLMDFALSQGASINQYKTPRCVTYAPILDLLNSKVLSSYISPKCPNWVPGHKDWCTLH | Yes | Yes | Yes | Yes | No | No
5 | GmGH3-15: GH3 protein, accession XP_003540050.1 (protein, Glycine max) MPEAPRDYNLFEQNKKTLEFIEDVTANADQVQKRVLSEILSNNANVEYLKRHDLHGQTDRETFKKLLPVITYEDIQPDINRIANGDTSPILCSKPISEFLTSSGTSGGERKLMPTIEEELGRRSLLYSLLMPVMSQFVPGLEKGKGMYLMFIKSEAKTPGGIVARPVLTSYYKSSYFKDRPYDPYTNYTSPNETVLCPDSYQSMYSQLLCGLCQHKEVLRVGAVFASGFIRAIRFLEKHWPLLCHDIRTGTINNTITDLSVRDAVMKILKPDPRLGDLIQSECGKSSWQGIITRLWPNTKYVDVIVTGTMSQYIPTLDYYSNGLPLVCTMYASSECYFGVNLNPLCKPSEVSYTLIPTMCYYEFLPVNRSNGVSHDSLHTPRSLNEKEQQELVELVDVKLGQEYELVVTTYAGLYRYRVGDVLRVAGFKNKAPQFNFVCRKNVVLSIDSDKTDEVELQNAMKNAVTHLVPFDASVSEYTSYADTTTIPGHYVLYWELSLKGSTPIPPCVFEDCCLAIEESLNSVYRQGRVSDKSIGPLEIKIVEQGTFDKLMDYAISLGASINQYKTPRCVKFAPVVELLNSRVVEKYFSPKCPKWVPGHKQWINQN | Yes | Yes | Yes | Yes | No | No
6 | GmGH3-14: GH3 protein, accession XP_003516612.1 (protein, Glycine max) MRPYPYVFPGPHVLPAKSTTEVVLIFCPLRYPGPLPLSFPFILSILILPSLIMALQFIEQVTKNTDSVQERVLSEILTQNAETEYLKRFALNGATDRDTFKSKVPVVTYEDLQPDIERIANGDRSPILCAHPISEFLTSSGTSAGERKLMPTIHEEMDRRQLLYSLLMPVMNQYVSDLDKGKALHFLFIKAEAKTPGGLMARPVLTSYYKSEQFRKRPFDPYNVLTSPNEAILCPDSFQSMYTQMLCGLIMRHEVLRVGAVFASGLLRAIRFLQLNWEQLSHDILTGTLNPKITEPSIKERMSKILKPDPELAAFIKSECSGENWERIIVRIWPNTKYLDVIVTGAMAQYIPTLDYYSGGLPKPCTMYASSECFFGLNLKPMSEPSDVSYTILPNMGYFEFLPHDDSSPITLSKDSPPRLVELADVELGKYYELIITTYAGLCRYRVGDILQVTGFHNSDPQFRFVRRKNVLLSIDSDKTDESELQKAVENASELLKEFNTSVAEYTSFADTKSIPGHYVIYWELMMKDSSHPPTNQVLNQCCLVMEESLNSVYRQGRVADNSIGPLEIRVVKNGTFEELMDYAISRGASINQYKVPRCVSFTPIMELLDSRVLSFHFSPAAPHWTPERRR | No | No | No | No | No | No
